Results published in FireProtDB (doi:10.1016/0022-2836(82)90184-x).

B1: Tryptophan synthase alpha chain, P0A877 (parent)
chain: MERYESLFAQLKERKEGAFVPFVTLGDPGIEQSLKIIDTLIEAGADALELGIPFSDPLADGPTIQNATLRAFAAGVTPAQCFEMLALIRQKHPTIPIGLLMYANLVFNKGIDEFYAQCEKVGVDSVLVADVPVEESAPFRQAALRHNVAPIFICPPNADDDLLRQIASYGRGYTYLLSRAGVTGAENRAALPLNHLVAKLKEYNAAPPLQGFGISAPDQVKAAIDAGAAGAISGSAIVKIIEQHINEPEKMLAALKVFVQPMKAATRS

Variants of: B1
Details: Escherichia coli (strain K12), 25 °C, GdnHCl, CD, reversible: yes, structure 1WQ5, whole UniProt chain shown
[1] = pH 7, Potassium phosphate 0.01 M

Variant | ddG of mutation (higher = less stable) (pH 5.5, acetate 0.05 M) | unfolding free energy (pH 5.5, acetate 0.05 M) | ddG of mutation (higher = less stable) [1] | unfolding free energy [1] | ddG of mutation (higher = less stable) (pH 9, Tris-HCl 0.025 M) | unfolding free energy (pH 9, Tris-HCl 0.025 M)
E49Q | 2.4 kcal/mol | 2.8 kcal/mol | 2.5 kcal/mol | 6.3 kcal/mol | -3.6 kcal/mol | 8.5 kcal/mol
E49V | -0.9 kcal/mol | 6.1 kcal/mol | -3.2 kcal/mol | 12 kcal/mol | -4.5 kcal/mol | 9.4 kcal/mol
E49M | -0.7 kcal/mol | 5.9 kcal/mol | -4.5 kcal/mol | 13.3 kcal/mol | -3.5 kcal/mol | 8.4 kcal/mol
E49S | 1.3 kcal/mol | 3.9 kcal/mol | 1.4 kcal/mol | 7.4 kcal/mol | -3.1 kcal/mol | 8 kcal/mol
E49Y | 0.4 kcal/mol | 4.8 kcal/mol | 0 kcal/mol | 8.8 kcal/mol | -1.9 kcal/mol | 6.8 kcal/mol
